From patent publication US20200140512A1 (published 2020) come the findings set out here.

The target of one assay is human PD-1-His (human, UniProt Q15116 25-167). Description: Octet.
In a further assay the target is T1, Cyno PD-1.
T1 chain: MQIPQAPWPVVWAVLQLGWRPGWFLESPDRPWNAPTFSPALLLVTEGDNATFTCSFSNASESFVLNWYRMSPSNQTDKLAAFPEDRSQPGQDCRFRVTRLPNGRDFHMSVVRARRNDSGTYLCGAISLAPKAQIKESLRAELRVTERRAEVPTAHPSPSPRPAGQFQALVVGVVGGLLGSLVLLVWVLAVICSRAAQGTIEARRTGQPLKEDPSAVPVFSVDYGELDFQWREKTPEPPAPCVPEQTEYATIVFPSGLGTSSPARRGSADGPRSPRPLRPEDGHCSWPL
The assay is described as follows: Octet. On the technique in general: BLI is a label-free optical method that tracks binding on a fibre tip over time.

For orientation: Kd means a measure of binding affinity in units of concentration.

human PD-1-His, sequence (Q15116 25-167): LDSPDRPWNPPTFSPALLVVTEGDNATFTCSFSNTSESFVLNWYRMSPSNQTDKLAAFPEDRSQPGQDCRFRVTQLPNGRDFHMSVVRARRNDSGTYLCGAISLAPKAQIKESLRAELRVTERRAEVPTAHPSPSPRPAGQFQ

B1: XENP28536 (bivalent mAb based on humanized mAb C, mAb C[PD-1]_H1L1) (antibody, V domains shown)
VH: EVQLVESGGGLVQPGGSLRLSCAASGFTFSSFGMHWVRQAPGKGLEWVSYISSGSSIIYYADSVKGRFTISRDNAKNSLYLQMNSLRAEDTAVYYCARGGRLVWSPDYWGQGTLVTVSS
VL: DIVMTQSPDSLAVSLGERATINCKSSQSLLNSGNQKNYLTWYQQKPGQPPKLLIYWASTRESGVPDRFTGSGSGTDFTLTISSLQAEDVAVYYCQNDYSYPFTFGSGTKLEIK
Consider B1, for which the Kd in the assay with human PD-1-His amounted to 24 nM; with Cyno PD-1 it was 35.8 nM.

B2: XENP28537 (humanized variant of anti-PD-1 mAb C, bivalent human IgG1) (antibody, V domains shown)
VH: B1 VH
VL: DIVMTQSPLSLPVTPGEPASISCRSSQSLLNSGNQKNYLTWYLQKPGQPPQLLIYWASTRESGVPDRFTGSGSGTDFTLKISRVEAEDVGVYYCQNDYSYPFTFGSGTKLEIKR
Regarding B2, the Kd with Cyno PD-1 is 42 nM.

B3: XENP28519 (bivalent mAb based on humanized mAb A) (antibody, V domains shown)
VH: QVQLQESGPGLVKPSQTLSLTCTVSGHSITSDYAWNWIRQPPGKKLEWIGYISYSGYTTYNPSLKSRVTISRDTSKNQFSLKLSSVTAADTAVYFCARDLDYGPWFAYWGQGTLVTVSS
VL: DIQMTQSPSSLSASVGDRVTITCRASENIHNYLAWYQQKPGKSPKLLVYNVKTLADGVPSRFSGSGSGTDYTLTISSLQPEDFATYYCQHFWSSPWTFGGGTKVEIKR
As to B3, the Kd in the assay with human PD-1-His came out at 11.9 nM.
